# Results as given in patent publication US20210253725A1 (BIONTECH, published 2021).
# Where a chain is given by its changes, count along the chain named. In names and notes the source's numbering stands.
# B1: P018.S.11.A.E03 (antibody, V domains shown)
# VH: QSVEESGGRLVTPGTPLTLTCTVSGFSLSSYAVSWVRQAPWKGLEWIGIISSGGNTYYASWATGRFTISKTSTTVDLKITSPTTEDTATYFCARGIHSYDDYLGYKLWGPGTLVTVSS
# VL: AIEMTQSPPSLSASVGETVRIRCLASEFLFNAVSWYQQKPEKPPTLLISGASNLESGVPPRFSGSGSGTDYTLTIGGVQAEDVAAYYCLGGYKRADLTFGPGTKVEIK
# notes: V regions on human Ig constant parts; also called AB134_34
# B2: P018.S.11.A.E05 (antibody, V domains shown)
# VH: QSLEESGGRLVTPGTPLTLNCTASGFSLSAYWMGWVRQAPGKGLEWIGIIYATGSTYYTTWAKGRFTISRTSTTVDLKMTSPTTEDTATYFCGRGDGYESLNLWGPGTLVTVSS
# VL: AQVLTQTPSSVSAAVGGTVTINCQSSQSVYSNNLLSWYQQKPGQPPKRLIYGASTLDSGVSSRFKGSGSGTQFTLTISGMQSDDAATYYCLGYYSGGIYVFGGGTEVVVK
# notes: V regions on human Ig constant parts; also called AB134_36
# B3: P018.S.11.A.E06 (antibody, V domains shown)
# VH: QSVEESGGRLVTPGTPLTLTCTASGFSLSSYYMSWVRQAPGKGLEWIGIIDTGSGDTWYATWAKGRFTISKTSTTVDLKMTSLTTEDTATYFCARVNPEFAHVWPYYFDLWGQGTLVTVSS
# VL: ALVMTQTPASVEVAVGGTVTIKCQASQSISSNFLSWYQQNPGQPPKLLIDRASTLESGVPSRFKGSGSGTEFTLTISDLESADAATYYCQQGDSLSNVENAFGGGTELVVK
# notes: V regions on human Ig constant parts; also called AB134_37
# B4: P018.S.11.A.H04 (antibody, V domains shown)
# VH: QEQLEESGGDLVKPGASLTLTCTASGLSFSGSYWICWVRQAPGKGLEWIGCITAGISGSTYYASWAKGRFTISKTSSTTVTLQMTSLTAADTATYFCARERTGGWGDFNLWGPGTLVTVSS
# VL: DVVMTQTPASVEAAVGGTVTIKCQASQSITTYLSWYQQKPGQPPKLLIYLASTLESGVPSRFKGSRSGTEYTLTISDLESADAATYYCQCTDGGINHWFWAFGGGTEVVVK
# notes: V regions on human Ig constant parts; also called AB134_47
# B5: P018.S.12.A.C05 (antibody, V domains shown)
# VH: QSLEESGGRLVTPGTPLTLTCTASGFSLSNYYMNWVRQAPGKGLEWIGIIDKSGSAYYASWARGRFTISKTSTTVGLKIPSPTTEDTATYFCARGYGGYADHGLGLWGQGTLVTVSS
# VL: DVVMTQTPASVSEPVGGTVTIKCQASQSIAGWLAWYQQKPGQPPKLLIYQASKLASGVPSRFSGSGSGTEYTLTISDLESDDAATYYCQCTYGSGSGSNGFGGGTEVVVK
# notes: V regions on human Ig constant parts; also called AB134_65
# B6: P018.S.12.A.A05 (antibody, V domains shown)
# VH: B5 VH with M33I
# VL: B5 VL with G95A
# notes: V regions on human Ig constant parts; also called AB134_54
# B7: P018.S.02.A.F03 (antibody, V domains shown)
# VH: QSVEESGGRLVTPGTPLTLTCTASGFSLSRYYMSWVRQAPGKGLEWIGFINTAGSAYYASWAKGRFTISRTSTTVDLKMTSLTTEDTATYFCARDLSRFSLWGRGTLVIVSS
# VL: AAVLTQTPSPVSAAVGGTVTINCQASPSVYSDYLSWFQKKPGQPPKLLIYWASTLASGVPSRFSGSGSGTQFTLTISDLESDDVATYYCAGGYSGNSDNWAFGGGTDVVVK
# notes: V regions on human Ig constant parts; also called AB134_2
# B8: P018.S.12.A.A04 (antibody, V domains shown)
# VH: QSVEESGGRLVTPGTPLTLTCTVSGIDLSSYAMSWVRQAPGKGLEYIGIISGSGNTYYASWAKGRFTISKTSTTVDLKISSPTTEDTATYFCCRGDPSYSIDGFDPWGPGTLVTVSS
# VL: AAVLTQTPSPVSAAVGGTVTINCQSSQSVYNNNDLAWYQQKPGQPPKLLIYRASNLASGVPSRFSGSGSGTQFTLTISGVQSGDAATYYCLGAWDDDADTWAFGGGTEVVVE
# notes: V regions on human Ig constant parts; also called AB134_53
# B9: P018.S.04.A.E01 (antibody, V domains shown)
# VH: QSVEESGGRLVTPGTPLTLTCTASGFSLSSSWMSWVRQAPGKGLEFIGFINTGGRAFYATWASGRFTISRTSTKVDLEITSPTSEDTATYFCVRGAAGYPEYDDGDLWGQGTLVTVSS
# VL: AQVLTQTLSPVSAAVGGTVTINCQSSPSVYHNNWLSWFQKKPGQPPKLLIYEASKLASGVPPRFSGSGSGTQFTLTISGVQSDDAATYYCAGSFSDNIYTFGGGTAMVVK
# notes: V regions on human Ig constant parts; also called AB134_10
# B10: P018.S.11.A.H02 (antibody, V domains shown)
# VH: QSVEESGGRLVTPGTPLTLTCTVSGFSLSNYAMSWVRQAPGKGLEWIGIISPSGNTYYANWAKGRFTISKTSTTVDLKITSPTTEDTATYFCAREGALYDDYGDYVDAFDPWGPGTLVTVSS
# VL: AAVLTQTPSPVSAAVGGTVSISCQSSESVYNNNWLSWYQQKPGQPPKLLIYRASTLASGVPSRFKGSGSGTQFTLTISDVQSDDAATYYCAGGYSSSSDINAFGGGTEVVVK
# notes: V regions on human Ig constant parts; also called AB134_46
# B11: P018.S.13.A.G06 (antibody, V domains shown)
# VH: QSLEESGGGLVKPGASLTLTCKASGFDLSSYYYMCWVRQAPGKGLEWIGCFYTDDSANTWYATWAKGRFTISKTSSTTVTLQMTSLTAADTATYFCARDASGWYWFNLWGPGTLVTVSS
# VL: AQVLTQTPSPVSAAVGGTVTISCQSSQSLHDDNALAWYQQKPGQPPKLLIYLASYLASGVPSRFKGSGSGTQFTLTISEVQSDDAATYYCQGAYSGDNNSFGGGTEVVVK
# notes: V regions on human Ig constant parts; also called AB134_92
# B12: P018.S.12.A.E02 (antibody, V domains shown)
# VH: QSVEESGGRLVTPGTPLTLTCTASGFTLSSYYMGWVRQAPGKGLEWIGIIYPSGSAYYATWTKGRFTISRTSTTVDLKVTGPTTEDTATYFCARSTTSSLYYGYNLWGQGTLVTVSS
# VL: DIVMTQTPASVEAAVGGTVTIKCQASASITNWLAWYQQKPGQPPKLLIYKASTLESGVPSRFKGSGSGTEFTLTISDLESADAASYYCQSNYGGGSDTSHTFGGGTGVVVK
# notes: V regions on human Ig constant parts; also called AB134_73
# B13: P018.S.11.A.G04 (antibody, V domains shown)
# VH: QSVEESGGRLVTPGTPLTLTCTASGFDLSSYYMSWVRQAPGKGLEWIGIIYTDSSASYASWAKGRFTISRTSTTVDLKMTSPTTEDTATYFCARGLVVSTDNYNLWGPGTLVTVSS
# VL: AAVLTQTPSPVSVAVGGTVTINCQASQSIYNNNYLAWFQQKPGQPPKLLIYYTSTLASGVPSRFKGSGSGTQFTLTINGVQSDDAATYYCLGDVGGGMRVFGGGTEVVVK
# notes: V regions on human Ig constant parts; also called AB134_44
# B14: P018.S.11.A.B04 (antibody, V domains shown)
# VH: QEQLEESGGDLVKPEGSLTLTCTASGFSFSSAYYMCWVRQAPGKGLEWIACIDAGSSGSTYYASWAKGRFTISKTSSTTVTLQMTSLTAADTATYFCARDGGSTTGYGWLDLWGQGTLVTVSS
# VL: AVVMTQTASPVSAAVGGTVTINCQASQSIGTNYLSWYQQKPGQPPKLLIYEASNLETGVPSRFKGSGSGTEYSLTISDLESADAATYYCLYSYYSSSSAYTFGGGTEVVVK
# notes: V regions on human Ig constant parts; also called AB134_25
# B15: P018.S.12.A.A02 (antibody, V domains shown)
# VH: QSLEESGGRLVTPGTPLTLTCTASGFSLSTYYMTWVRQAPGKGLEWIGDIYVRGGARYANWAKGRFTISRTSTTVDLRITSPTTEDTATYFCAREGLSLWGQGTLVTVSS
# VL: AQVLTQTASPVSAAVGGTVTINCQSSQSVYKNNRLAWYQQKPGQPPKLLIYETSKLESGVSSRFKGSGSGTQFTLTISGVQSDDAATYYCLGGYDCGSADCNAFGGGTEVVVK
# notes: V regions on human Ig constant parts; also called AB134_51
# B16: P018.S.12.A.D02 (antibody, V domains shown)
# VH: QSVEESGGRLVTPGTPLTLTCTVSGFSLRHYAMSWVRQAPGKGLEWIGVITTTANTYYASWAKGRFTVSKASSTTVDLKIMSPTIEDTATYFCARAMGLYDSYVDVDDTHDAFDPWGPGTLVTVSS
# VL: AQVLTQTASPVSAAVGGTVTINCQSSQSVYNSHVLSWYQQKPGQPPKLLIYDASNLASGVPSRFSASGSGTQFTLTISGVQSDDAATYYCLGGYDDDADNIFAFGGGTEVVVA
# notes: V regions on human Ig constant parts; also called AB134_67
# Target: T1, CD134 protein (His-tagged, Sino Biological Inc. 10481-H08H) (human, UniProt P43489 29-216)
# T1 construct: bought protein coated on ELISA plates; also called OX40; TNFRSF4; not shown: His tag
# T1 sequence (looked up): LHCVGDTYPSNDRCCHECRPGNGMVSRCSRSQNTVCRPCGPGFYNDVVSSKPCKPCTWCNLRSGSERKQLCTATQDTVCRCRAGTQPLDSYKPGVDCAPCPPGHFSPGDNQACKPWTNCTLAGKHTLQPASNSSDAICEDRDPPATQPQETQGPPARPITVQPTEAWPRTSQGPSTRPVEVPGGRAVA
# Test: ELISA, coated His-tagged CD134
# Further: test concentration or dose not given here.
row,Binder,ELISA [abs. corr.]
1,B1,0.276
2,B2,1.66
3,B3,2.05
4,B4,2.65
5,B5,2.94
6,B6,2.86
7,B7,2.85
8,B8,1.99
9,B9,2.88
10,B10,2.8
11,B11,0.002
12,B12,2.59
13,B13,2.13
14,B14,1.43
15,B15,1.58
16,B16,2.64

# Target: T2, CD134 expressed on the cell surface of HT1080_OX40 cells (human, UniProt P43489 29-277)
# T2 sequence (looked up): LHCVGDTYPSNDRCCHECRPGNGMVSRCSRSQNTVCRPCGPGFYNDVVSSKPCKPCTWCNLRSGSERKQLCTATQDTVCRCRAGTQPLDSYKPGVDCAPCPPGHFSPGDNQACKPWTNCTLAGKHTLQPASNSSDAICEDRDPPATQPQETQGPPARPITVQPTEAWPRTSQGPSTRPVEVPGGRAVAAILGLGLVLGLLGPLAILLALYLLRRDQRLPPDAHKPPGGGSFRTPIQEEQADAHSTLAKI
# Test: cell-based or functional assay
Binder,Functional assay Cross-linked by F(ab′)2 fragment IL-8 [abs. corr.],Functional assay IL-8 [abs. corr.]
B1,1.79,0.481
B2,1.42,-0.265
B3,1.72,0.278
B4,1.61,0.61
B5,1.65,0.228
B6,1.53,0.267
B7,1.73,0.09
B8,1.4,-0.007
B9,1.41,0.084
B10,1.8,0.783
B11,1.58,-0.114
B12,1.63,0.355
B13,1.75,0.014
B14,1.66,-0.087
B15,1.57,0.145
B16,1.77,0.333

# Target: T2, CD134 expressed on the cell surface of …
# Test: HT1080_OX40 cells, imaging
row,Binder,Cellular binding assay [RFU]
1,B1,318
2,B2,407
3,B3,554
4,B4,382
5,B5,494
6,B6,503
7,B7,140
8,B8,514
9,B9,22
10,B10,515
11,B11,0
12,B12,497
13,B13,482
14,B14,444
15,B15,502
16,B16,472
